To fix the notation:
B1: Prelamin-A/C (Homo sapiens), P02545 (parent)
chain: METPSQRRATRSGAQASSTPLSPTRITRLQEKEDLQELNDRLAVYIDRVRSLETENAGLRLRITESEEVVSREVSGIKAAYEAELGDARKTLDSVAKERARLQLELSKVREEFKELKARNTKKEGDLIAAQARLKDLEALLNSKEAALSTALSEKRTLEGELHDLRGQVAKLEAALGEAKKQLQDEMLRRVDAENRLQTMKEELDFQKNIYSEELRETKRRHETRLVEIDNGKQREFESRLADALQELRAQHEDQVEQYKKELEKTYSAKLDNARQSAERNSNLVGAAHEELQQSRIRIDSLSAQLSQLQKQLAAKEAKLRDLEDSLARERDTSRRLLAEKEREMAEMRARMQQQLDEYQELLDIKLALDMEIHAYRKLLEGEEERLRLSPSPTSQRSRGRASSHSSQTQGGGSVTKKRKLESTESRSSFSQHARTSGRVAVEEVDEEGKFVRLRNKSNEDQSMGNWQIKRQNGDDPLLTYRFPPKFTLKAGQVVTIWAAGAGATHSPPTDLVWKAQNTWGCGNSLRTALINSTGEEVAMRKLVRSVTVVEDDEDEDGDDLLHHHHGSHCSSSGDPAEYNLRSRTVLCGTCGQPADKASASGSGAQVGGPISSGSSASSVTVTRSYRSVGGSGGGSFGDNLVTRSYLLGNSSPRTQSPQNCSIM

Assay [1] covers variants of B1. Conditions: with SYNE2, Q8WXH0-1.
The variants in assay [2] derive from B1. The following applies: with SYNE2, Q8WXH0-1. This is another data set of the same source.

In the case of R401C, the “effect of a mutation on the interaction” value is “increasing interaction strength” with SYNE2, Q8WXH0-1 [1] and “with no effect” with SYNE2, Q8WXH0-1 [2].

Consider G413C, for which the “effect of a mutation on the interaction” value with SYNE2, Q8WXH0-1 [1] is recorded as “decreasing interaction strength”; with SYNE2, Q8WXH0-1 [2] it was “with no effect”.

Take R427G: the “effect of a mutation on the interaction” value is listed as “decreasing interaction strength” with SYNE2, Q8WXH0-1 [1] and “with no effect” with SYNE2, Q8WXH0-1 [2].

As for G411D, the “effect of a mutation on the interaction” value is recorded as “increasing interaction strength” in the assay with SYNE2, Q8WXH0-1 [1] and “with no effect” with SYNE2, Q8WXH0-1 [2].

In the case of R419C, the “effect of a mutation on the interaction” value is listed as “decreasing interaction strength” with SYNE2, Q8WXH0-1 [1] and “with no effect” with SYNE2, Q8WXH0-1 [2].

Consider L421P, for which the “effect of a mutation on the interaction” value with SYNE2, Q8WXH0-1 [1] is “decreasing interaction strength”; with SYNE2, Q8WXH0-1 [2], “with no effect”.

With V415I, the “effect of a mutation on the interaction” value with SYNE2, Q8WXH0-1 [1] is reported as “increasing interaction strength”; with SYNE2, Q8WXH0-1 [2], “with no effect”.

Source of the values: IntAct's records for PubMed 23977161.
